Measured values published in article PMC8495130, “Synthesis of L-asparagine Catalyzed by a Novel Asparagine Synthase Coupled With an ATP Regeneration System” (Frontiers in Bioengineering and Biotechnology, 2021).

How the values were obtained:
[1] = substrate: N[C@@H](CC(=O)O)C(=O)O; test: purified protein; details: standard assay: NH4Cl, ATP, Mg2+, Tris-HCl pH 8.0, 37°C, purification state of the kinetic sample not stated
[2] = substrate: N; test: purified protein; details: standard assay: L-Asp, ATP, Mg2+, Tris-HCl pH 8.0, 37°C, purification state of the kinetic sample not stated
[3] = substrate: Nc1ncnc2c1ncn2[C@@H]1O[C@H](COP(=O)(O)OP(=O)(O)OP(=O)(O)O)[C@@H](O)[C@H]1O; test: HPLC of L-Asn after OPA derivatization; double reciprocal plot; assay type: biochemical, Ligilactobacillus salivarius; details: standard assay: L-Asp, NH4Cl, Mg2+, Tris-HCl pH 8.0, 37°C, purification state of the kinetic sample not stated
Source text: HPLC of L-Asn after OPA derivatization; double reciprocal plot on LsaAS-A

B1: LsaAS-A (Ligilactobacillus salivarius UCC118) (protein)
chain: MDLIIPKDYDPKLSIRETQEAIRYIRETFQDEFGKEMGLNRVSAPMYVEKSSGINDNLNGYEKPVSFTMKDMPGETIEVVHSLAKWKRMALKKYGFGLHEGLYTNMNAIRKDEDLDNFHSSYVDQWDWEKVISKDERNEKTLKETVELIFKVVKHMEHEVWYKFPNAVYHLPDKIHFITSQELEDKYPELEDAKDRENAICKELGCVFVMQIGDVLKSGKRHDGRAPDYDDWKLNGDILFWYEPLQCALELSSMGIRVDEDSMVEQLKKTGDEDRLKLQYHKMILNKELPYTIGGGIGQSRLCMLLLGKAHVGEVQASIWPDEMLKKCEENGIHIL
notes: full-length asnA product (~40 kDa) from plasmid pMA5, expressed in Bacillus subtilis WB600; Ni-NTA purification described in methods
In the case of B1, the Km [1] is reported as 780 µM, the Km [2] is reported as 6500 µM and the Km [3] is reported as 2240 µM.
